Experimental data reported in PMC4330359, “DNA-mediated cooperativity facilitates the co-selection of cryptic enhancer sequences by SOX2 and PAX6 transcription factors”.

Key:
[1] = biological target: T1, Sox2-HMG long (109 aa) (mouse, UniProt P48432 41-149); assay: EMSA; binary Sox2-DNA complex prominent; EMSA: 10 mM Tris-HCl pH 8.0, 0.1 mg/ml BSA, 50 uM ZnCl2, 100 mM KCl, 10% glycerol, 0.1% IGEPAL CA-630, 2 mM 2-mercaptoethanol, 1-2 h, gel at 4 C, 100-300 nM DNA; NMR: 50 mM K phosphate, 100 mM NaCl, pH 7.0, 298 K; conditions: protein: recombinant; label: 5'-FAM or 5'-Cy5; blunt
T1 sequence (P48432 41-149): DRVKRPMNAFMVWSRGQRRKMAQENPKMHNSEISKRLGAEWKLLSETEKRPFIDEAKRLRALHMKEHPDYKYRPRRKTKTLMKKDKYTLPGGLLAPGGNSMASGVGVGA

[2] = biological target: T1, Sox2-HMG long (109 aa); assay: NMR; 1:1.2 Sox2:DC5; EMSA: 10 mM Tris-HCl pH 8.0, 0.1 mg/ml BSA, 50 uM ZnCl2, 100 mM KCl, 10% glycerol, 0.1% IGEPAL CA-630, 2 mM 2-mercaptoethanol, 1-2 h, gel at 4 C, 100-300 nM DNA; NMR: 50 mM K phosphate, 100 mM NaCl, pH 7.0, 298 K; conditions: protein: recombinant; blunt
[3] = biological target: Sox2-HMG long (109 aa);Pax6-PRD R44Q (mouse;mouse?, UniProt P48432;P63015 41-149;4-130, |R44Q); assay: EMSA; cooperativity not affected by R44Q; EMSA: 10 mM Tris-HCl pH 8.0, 0.1 mg/ml BSA, 50 uM ZnCl2, 100 mM KCl, 10% glycerol, 0.1% IGEPAL CA-630, 2 mM 2-mercaptoethanol, 1-2 h, gel at 4 C, 100-300 nM DNA; NMR: 50 mM K phosphate, 100 mM NaCl, pH 7.0, 298 K; conditions: protein: recombinant;recombinant; tags: ;; copies: 1;1; label: 5'-FAM or 5'-Cy5; blunt
Sequence of Sox2-HMG long (109 aa);Pax6-PRD R44Q (P48432 41-149, chain 1 of 2): as the sequence (P48432 41-149) above
Sequence of Sox2-HMG long (109 aa);Pax6-PRD R44Q (P63015 4-130 R44Q, chain 2 of 2): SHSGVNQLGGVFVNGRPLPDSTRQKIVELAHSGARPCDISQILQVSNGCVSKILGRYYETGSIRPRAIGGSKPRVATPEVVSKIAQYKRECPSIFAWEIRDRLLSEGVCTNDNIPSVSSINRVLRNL

[4] = biological target: Sox2-HMG long (109 aa);Pax3-PRD (mouse;mouse?, UniProt P48432;P24610 41-149;34-161, |); assay: EMSA; cooperative; EMSA: 10 mM Tris-HCl pH 8.0, 0.1 mg/ml BSA, 50 uM ZnCl2, 100 mM KCl, 10% glycerol, 0.1% IGEPAL CA-630, 2 mM 2-mercaptoethanol, 1-2 h, gel at 4 C, 100-300 nM DNA; NMR: 50 mM K phosphate, 100 mM NaCl, pH 7.0, 298 K; conditions: protein: recombinant;recombinant; tags: ;; copies: 1;1; label: 5'-FAM or 5'-Cy5; blunt
Sequence of Sox2-HMG long (109 aa);Pax3-PRD (P48432 41-149, chain 1 of 2): as the sequence (P48432 41-149) above
Sequence of Sox2-HMG long (109 aa);Pax3-PRD (P24610 34-161, chain 2 of 2): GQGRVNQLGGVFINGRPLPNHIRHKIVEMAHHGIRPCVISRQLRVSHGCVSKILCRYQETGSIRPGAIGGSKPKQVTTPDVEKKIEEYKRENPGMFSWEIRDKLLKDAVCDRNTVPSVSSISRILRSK

[5] = biological target: Sox2-HMG long (109 aa);Pax9-PRD (mouse;mouse?, UniProt P48432;P47242 41-149;4-130, |); assay: as above; conditions: protein: recombinant;recombinant; tags: ;; copies: 1;1; label: 5'-FAM or 5'-Cy5; blunt
Sequence of Sox2-HMG long (109 aa);Pax9-PRD (P48432 41-149, chain 1 of 2): as the sequence (P48432 41-149) above
Sequence of Sox2-HMG long (109 aa);Pax9-PRD (P47242 4-130, chain 2 of 2): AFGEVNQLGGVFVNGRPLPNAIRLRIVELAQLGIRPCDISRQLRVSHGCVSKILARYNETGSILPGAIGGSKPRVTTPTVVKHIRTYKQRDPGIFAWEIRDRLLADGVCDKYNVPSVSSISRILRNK

[6] = biological target: Sox2-HMG long (109 aa);Pax8-PRD (mouse;mouse?, UniProt P48432;Q00288 41-149;9-135, |); assay: as above; conditions: protein: recombinant;recombinant; tags: ;; copies: 1;1; label: 5'-FAM or 5'-Cy5; blunt
Sequence of Sox2-HMG long (109 aa);Pax8-PRD (P48432 41-149, chain 1 of 2): as the sequence (P48432 41-149) above
Sequence of Sox2-HMG long (109 aa);Pax8-PRD (Q00288 9-135, chain 2 of 2): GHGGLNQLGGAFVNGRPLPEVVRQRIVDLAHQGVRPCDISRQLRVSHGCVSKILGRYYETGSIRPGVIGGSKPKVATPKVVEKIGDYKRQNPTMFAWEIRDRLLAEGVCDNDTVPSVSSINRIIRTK

[7] = biological target: Sox2-HMG long (109 aa);Pax2-PRD (mouse;mouse?, UniProt P48432;P32114 41-149;15-141, |); assay: as above; conditions: protein: recombinant;recombinant; tags: ;; copies: 1;1; label: 5'-FAM or 5'-Cy5; blunt
Sequence of Sox2-HMG long (109 aa);Pax2-PRD (P48432 41-149, chain 1 of 2): as the sequence (P48432 41-149) above
Sequence of Sox2-HMG long (109 aa);Pax2-PRD (P32114 15-141, chain 2 of 2): as the sequence (Q00288 9-135, chain 2 of 2) above, with G1R, L5V, A11V, E20D, D28E, R64K, E82D, G85A, D86E, V108I counted along it

B1: DC5con (dsDNA)
DNA 1: AAATATTCATTGTTGATGTTCACGCATCATGGATCC
DNA 2: GGATCCATGATGCGTGAACATCAACAATGAATATTT
binding result [1]: binds

B2: DC5 31-mer (NMR) (dsDNA)
DNA 1: TTCATTGTTGTTGCTCACCTACCATGGATCC
DNA 2: GGATCCATGGTAGGTGAGCAACAACAATGAA
binding result [2]: binds

B3: DC5 (dsDNA)
DNA 1: AAATATTCATTGTTGTTGCTCACCTACCATGGATCC
DNA 2: GGATCCATGGTAGGTGAGCAACAACAATGAATATTT
binding result [3]: binds
binding result [4]: binds
binding result [5]: binds
binding result [6]: binds
binding result [7]: binds
